Measurements published in US20040248202A1, “Bacteriorhodopsin/G protein-coupled receptor chimeras” (Wisconsin Alumni Research Foundation, priority 1998, published 2004).

What was measured:
holotransducin = holotransducin (Homo sapiens, UniProt P11488); test: Effects of GDP concentration on the basal exchange of GTPγS by holotransducin; assay type: biochemical; settings: 10 Minutes
Description: (§1) Chimeric or bacteriorhodopsin protein (1.7 uM) was incubated with 0.8 uM holotransducin with 10 nM ^35S radiolabeled GTPyS in buffer (20 mM Hepes (pH 7.5), 5 mM MgCl2, 1 mM DTT, 0.1 mM EDTA, and 20 mM NaCl). The reaction was incubated at 30° C. for 5, 10, 15 or 30 minutes. The reaction was terminated by transferring aliquots of the reaction mixture to nitrocellulose filters (0.45 um) prewetted with wash buffer (10 mM Tris (pH 7.5), 5 mM MgCl2, 100 mM NaC1, 0.1 mM EDTA) and placed on a vacuum manifold. The filters were then washed with 8 ml of wash buffer. The filters were then placed overnight in scintillation vials filled with 20 ml of scintillation cocktail. The activity of the vials was counted by a Liquid Scintillation Counter. For the BR-Rhodopsin loop 3 chimeras, in which the rhodopsin intracellular loop 3 replaced the native BR intracellular loop 3 and was fused from T157 on BR TM 5 to V167 on BR TM 6, activity was determined by an increased uptake of GTPS over basal exchange by transducin alone.
The next set of experiments was designed to measure the effects of GDP concentration on the basal exchange of GTPγS by holotransducin.

transducin = transducin (Homo sapiens, UniProt P11488); test: GTPyS exchange assay in the presence of high affinity analog or random peptide; assay type: biochemical; settings: for % Inhibition of GTPγS Uptake (Controlled for Peptide inhibition of Basal Exchange): 3C; for % Inhibition of GTPγS Uptake (Controlled for Peptide inhibition of Basal Exchange) / Specific counts (Lattice Form) / SPECIFIC COUNTS: (Lattice Form): 10 Minutes
Description: as §1
The high affinity analog has the sequence V-L-E-D-L-K-S-C-G-L-F-G (SEQ ID NO:43) (J. Biol. Chem. 271 pp. 361-366, 1996).
The random peptide consists of the sequence S-S-V-F-L-V-V-D-R-S-R (SEQ ID NO:44).
The addition of the high affinity analog at a final concentration of 8 uM gave the following results.
The second inhibition experiment used 50 uM of the high affinity analog.

[1] = Basal Exchange (no chimera) + 8 uM peptide

Sequence of transducin (P11488 2-350 limits assumed): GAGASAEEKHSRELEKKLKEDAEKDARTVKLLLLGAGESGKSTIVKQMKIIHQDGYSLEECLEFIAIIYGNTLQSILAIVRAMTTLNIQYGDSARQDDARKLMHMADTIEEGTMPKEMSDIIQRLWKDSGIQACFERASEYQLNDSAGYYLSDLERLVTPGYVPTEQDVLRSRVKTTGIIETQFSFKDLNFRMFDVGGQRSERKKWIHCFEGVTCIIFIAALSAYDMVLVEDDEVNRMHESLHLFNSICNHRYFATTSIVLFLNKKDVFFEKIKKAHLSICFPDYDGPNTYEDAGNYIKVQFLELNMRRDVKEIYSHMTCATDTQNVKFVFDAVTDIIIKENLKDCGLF
Sequence of transducin (P62873 2-340 partner limits assumed): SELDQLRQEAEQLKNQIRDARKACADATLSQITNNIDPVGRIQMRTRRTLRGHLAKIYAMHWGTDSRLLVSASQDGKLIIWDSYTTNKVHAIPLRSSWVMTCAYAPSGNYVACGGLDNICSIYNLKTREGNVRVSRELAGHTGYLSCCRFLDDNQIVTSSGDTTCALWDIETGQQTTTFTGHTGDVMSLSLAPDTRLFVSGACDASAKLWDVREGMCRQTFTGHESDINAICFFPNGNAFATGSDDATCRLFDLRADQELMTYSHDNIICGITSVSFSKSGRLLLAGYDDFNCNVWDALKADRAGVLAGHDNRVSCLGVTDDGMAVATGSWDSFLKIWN
Sequence of transducin (P63211 2-71 partner limits assumed): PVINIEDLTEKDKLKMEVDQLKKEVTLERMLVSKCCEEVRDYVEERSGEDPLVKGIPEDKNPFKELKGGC
Sequence of holotransducin (P11488 2-350 limits assumed): as the sequence (P11488 2-350 limits assumed) above
Sequence of holotransducin (P62873 2-340 partner limits assumed): as the sequence (P62873 2-340 partner limits assumed) above
Sequence of holotransducin (P63211 2-71 partner limits assumed): as the sequence (P63211 2-71 partner limits assumed) above

Molecule | Specific counts (Lattice Form) (holotransducin; Basal Exchange + 10 uM GDP) | Specific counts (Lattice Form) (holotransducin; Basal Exchange + 50 uM GDP) | Specific counts (Lattice Form) (holotransducin; Basal Exchange + 100 uM GDP) | % Inhibition of GTPγS Uptake (Controlled for Peptide inhibition of Basal Exchange) (transducin; 8 uM peptide) | % Inhibition of GTPγS Uptake (Controlled for Peptide inhibition of Basal Exchange) (transducin; 50 uM peptide) | Specific counts (Lattice Form) (transducin; 3C + 8 uM peptide) | SPECIFIC COUNTS: (Lattice Form) (transducin; 3C + 50 uM peptide) | Specific counts (Lattice Form) (transducin; [1]) | SPECIFIC COUNTS: (Lattice Form) (transducin; Basal Exchange (no chimera) + 50 uM peptide) | Effect on chimera-enhanced GTP-GDP exchange (transducin; presence of peptide)
Nc1nc2c(ncn2[C@@H]2O[C@H](COP(=O)(O)OP(=O)(O)O)[C@@H](O)[C@H]2O)c(=O)[nH]1 [GDP] | 22885 counts | 11061 counts | 7502 counts |  |  |  |  |  |  | 
S-S-V-F-L-V-V-D-R-S-R (SSVFLVVDRSR) [Random peptide] |  |  |  | 5.8% | 30% | 47516 counts | 35568 counts | 23868 counts |  | 
V-L-E-D-L-K-S-C-G-L-F-G (VLEDLKSCGLFG) [High affinity analog] |  |  |  | 23% | 70% | 42455 counts | 46892 counts | 23154 counts | 33888 counts | inhibited
